Results on five compounds are retold here after patent US12246062B2, “Recombinant human acid alpha-glucosidase” (Amicus Therapeutics, Inc., priority 2017, dated 2025).

pKd: −log10 of the molar value. Marks after values point to notes of the source that are not given here. Where only a bound is given, the exact number is not on record here.

Series [1] can be described thus: Thermostability assay using SYPRO Orange. The series is classed as physicochemical. The protocol:
The stability of ATB200 in acidic or neutral pH buffers was evaluated in a thermostability assay using SYPRO Orange, as the fluorescence of the dye increases when proteins denature. […] As summarized in Table 6, the addition of AT2221 increased the melting temperature (Tm) of ATB200 by nearly 10° C.

Series [2] has as its system Gaa KO mice. Description: Single fiber analysis, LAMP1/LC3 co-immunofluorescence. The series is classed as in vivo. The text has this: FIG. 17 depicts co-immunofluorescent staining of LAMP1 (green) (see for example, “B”) and LC3 (red) (see, for example, “A”) in single fibers isolated from the white gastrocnemius of Gaa KO mice treated with a vehicle, alglucosidase alfa, or ATB200. “C” depicts clearance of autophagic debris and absence of enlarged lysosome. A minimum of 30 fibers were examined from each animal.
As a result, a significant portion of muscle fibers analyzed (36-60%) from ATB200-treated mice appeared normal or near-normal.

Details of series [3]: species or system human. The following applies: in vivo. As to the method:
Preclinical studies were conducted in Gaa knockout mice to evaluate the pharmacokinetics (PK) and efficiency of glycogen reduction at varying ATB200 enzyme replacement therapy (ERT) and AT2221 chaperone doses. […] Study ATB200-02 (NCT02675465) was then designed as an open-label fixed-sequence, ascending dose, first-in-human, phase 1/2 study to evaluate the safety, tolerability, PK, pharmacodynamics (PD), and efficacy of ATB200 co-administered with AT2221 in patients with Pompe disease. FIGS. 19A-19B present the ATB200-02 study design. Ambulatory patients who have previously received enzyme replacement therapy with alglucosidase alfa are referred to as ambulatory ERT-switch (or ERT-switch ambulatory) patients or Cohort 1 patients. Nonambulatory patients who have previously received enzyme replacement therapy with alglucosidase alfa are referred to as nonambulatory ERT-switch (or ERT-switch nonambulatory) patients or Cohort 2 patients. Ambulatory patients who have not previously received enzyme replacement therapy with alglucosidase alfa are referred to as ERT-naïve (or ERT-naïve ambulatory) patients or Cohort 3 patients. Total GAA protein concentrations in plasma for ATB200 at 5 mg/kg, 10 mg/kg, and 20 mg/kg were determined by validated LC-MS/MS quantification of rhGAA-specific “signature” peptide(s) […] (primary) and T50 (confirmatory) for 11 Cohort 1 patients who completed Stages 1 and 2, as well as for five Cohort 2 patients who completed the PK study in Stage 3. For Stage 1, blood samples for plasma total GAA protein concentration were collected prior to the start of ATB200 infusion and at 1, 2, 3, 3.5, 4, 4.5, 5, 6, 8, 10, 12, and 24 hour(s) after the start of infusion. For Stage 2 and Stage 3, blood samples for plasma total GAA protein concentration were collected prior to the start of infusion and at 1, 2, 3, 3.5, 4, 4.5, 5, 6, 8, 10, 12, and 24 hour(s) after the start of infusion.

Series [4] relates to normal and Pompe fibroblast cell lines. Description: Cellular uptake of rhGAA in fibroblasts. Type of series: cell-based. The following applies: for concentration that saturates cellular receptors: 16-hr incubation, internalized GAA by 4MU-α-Glucoside hydrolysis; for uptake efficiency constant (Kuptake): extrapolated from uptake results. The protocol:
The relative cellular uptake of ATB200 and Lumizyme® rhGAA were compared using normal and Pompe fibroblast cell lines. Comparisons involved 5-100 nM of ATB200 according to the invention with 10-500 nM conventional rhGAA product Lumizyme® After 16-hr incubation, external rhGAA was inactivated with TRIS base and cells were washed 3-times with PBS prior to harvest. Internalized GAA measured by 4MU-α-Glucoside hydrolysis and was graphed relative to total cellular protein and the results appear in FIGS. 11A-11C.
ATB200 was also shown to be efficiently internalized into cells. […] ATB200 saturates cellular receptors at about 20 nM, while about 250 nM of Lumizyme® is needed to saturate cellular receptors.

Series [5] addresses T1, CIMPR (Homo sapiens, UniProt P11717). Description: CIMPR plate binding assay. As to the method:
In addition to having a greater percentage of rhGAA that can bind to the CIMPR, it is important to understand the quality of that interaction. Lumizyme® and ATB200 receptor binding was determined using a CIMPR plate binding assay. Briefly, CIMPR-coated plates were used to capture GAA. Varying concentrations of rhGAA were applied to the immobilized receptor and unbound rhGAA was washed off. The amount of remaining rhGAA was determined by GAA activity. […] For Lumizyme®, there is on average only 10% of molecules having a bis-phosphorylated N-glycan. In contrast, on average every rhGAA molecule in ATB200 has at least one bis-phosphorylated N-glycan.
N-glycan analysis via MALDI-TOF mass spectrometry confirmed that on average each ATB200 molecule contains at least one natural bis-M6P N-glycan structure.

Series [6] has as its target T1, CIMPR. The experiment in a line: CIMPR affinity chromatography. Type of series: binding. The following applies: CIMPR affinity column; fraction of total enzyme by GAA activity. An excerpt: Multiple batches of the rhGAA according to the invention were produced in shake flasks and in perfusion bioreactors using CHO cell line GA-ATB200, the product of which is referred to as “ATB200.” Weak anion exchange (“WAX”) liquid chromatography was used to fractionate ATB200 rhGAA according to terminal phosphate and sialic acid. Elution profiles were generated by eluting the ERT with increasing amount of salt. The profiles were monitored by UV (A280 nm).
To evaluate the ability of the conventional rhGAAs in Myozyme® and Lumizyme® to interact with the CIMPR, the two conventional rhGAA preparations were injected onto a CIMPR affinity column (which binds rhGAA having M6P groups) and the flow through collected. The bound material was eluted with a free M6 gradient. Fractions were collected in 96-well plate and GAA activity assayed by 4MU-α-glucosidase substrate. The relative amounts of unbound (flow through) and bound (M6P eluted) rhGAA were determined based on GAA activity and reported as the fraction of total enzyme. […] Indeed, only 27% of the rhGAA in Myozyme® and 22% of the rhGAA in Lumizyme® contained M6P that can be productive to target it to the CIMPR on muscle cells.

In series [7] the test system is Gaa KO mice. The experiment in a line: Muscle fiber biomarkers LAMP1, LC3, dysferlin. The series is classed as in vivo. As to the method:
The therapeutic effects of ATB200 and AT2221 were evaluated and compared against those of Alglucosidase alfa in Gaa KO mice. For the study, male Gaa KO (3- to 4-month old) and age-matched wild-type (WT) mice were used. Alglucosidase alfa was administered via bolus tail vein intravenous (IV) injection. In the co-administration regimen, AT2221 was administered via oral gavage (PO) 30 minutes prior to the IV injection of ATB200. Treatment was given biweekly. Treated mice were sacrificed after 14 days from the last administration and various tissues were collected for further analysis. Table 7 summarizes the study design:
Tissue samples were also analyzed for biomarker changes following the methods discussed in: Khanna R, et al. (2012), “The pharmacological chaperone AT2220 increases recombinant human acid α-glucosidase uptake and glycogen reduction in a mouse model of Pompe disease,” Plos One 7(7): e40776; and Khanna. […]
Similarly, intense LC3-positive aggregates in the muscle fibers of untreated Gaa KO mice signify the presence of autophagic zones and autophagy build-up. […] A similar observation was made when the expression of LC3 was assessed using western blot. […]
Dysferlin, a protein involved in membrane repair and whose deficiency/mistrafficking is associated with a number of muscular dystrophies, w as also assessed.

Setting [8] is: single fibers from white gastrocnemius.

T1 sequence (P11717 41-2491, species assumed): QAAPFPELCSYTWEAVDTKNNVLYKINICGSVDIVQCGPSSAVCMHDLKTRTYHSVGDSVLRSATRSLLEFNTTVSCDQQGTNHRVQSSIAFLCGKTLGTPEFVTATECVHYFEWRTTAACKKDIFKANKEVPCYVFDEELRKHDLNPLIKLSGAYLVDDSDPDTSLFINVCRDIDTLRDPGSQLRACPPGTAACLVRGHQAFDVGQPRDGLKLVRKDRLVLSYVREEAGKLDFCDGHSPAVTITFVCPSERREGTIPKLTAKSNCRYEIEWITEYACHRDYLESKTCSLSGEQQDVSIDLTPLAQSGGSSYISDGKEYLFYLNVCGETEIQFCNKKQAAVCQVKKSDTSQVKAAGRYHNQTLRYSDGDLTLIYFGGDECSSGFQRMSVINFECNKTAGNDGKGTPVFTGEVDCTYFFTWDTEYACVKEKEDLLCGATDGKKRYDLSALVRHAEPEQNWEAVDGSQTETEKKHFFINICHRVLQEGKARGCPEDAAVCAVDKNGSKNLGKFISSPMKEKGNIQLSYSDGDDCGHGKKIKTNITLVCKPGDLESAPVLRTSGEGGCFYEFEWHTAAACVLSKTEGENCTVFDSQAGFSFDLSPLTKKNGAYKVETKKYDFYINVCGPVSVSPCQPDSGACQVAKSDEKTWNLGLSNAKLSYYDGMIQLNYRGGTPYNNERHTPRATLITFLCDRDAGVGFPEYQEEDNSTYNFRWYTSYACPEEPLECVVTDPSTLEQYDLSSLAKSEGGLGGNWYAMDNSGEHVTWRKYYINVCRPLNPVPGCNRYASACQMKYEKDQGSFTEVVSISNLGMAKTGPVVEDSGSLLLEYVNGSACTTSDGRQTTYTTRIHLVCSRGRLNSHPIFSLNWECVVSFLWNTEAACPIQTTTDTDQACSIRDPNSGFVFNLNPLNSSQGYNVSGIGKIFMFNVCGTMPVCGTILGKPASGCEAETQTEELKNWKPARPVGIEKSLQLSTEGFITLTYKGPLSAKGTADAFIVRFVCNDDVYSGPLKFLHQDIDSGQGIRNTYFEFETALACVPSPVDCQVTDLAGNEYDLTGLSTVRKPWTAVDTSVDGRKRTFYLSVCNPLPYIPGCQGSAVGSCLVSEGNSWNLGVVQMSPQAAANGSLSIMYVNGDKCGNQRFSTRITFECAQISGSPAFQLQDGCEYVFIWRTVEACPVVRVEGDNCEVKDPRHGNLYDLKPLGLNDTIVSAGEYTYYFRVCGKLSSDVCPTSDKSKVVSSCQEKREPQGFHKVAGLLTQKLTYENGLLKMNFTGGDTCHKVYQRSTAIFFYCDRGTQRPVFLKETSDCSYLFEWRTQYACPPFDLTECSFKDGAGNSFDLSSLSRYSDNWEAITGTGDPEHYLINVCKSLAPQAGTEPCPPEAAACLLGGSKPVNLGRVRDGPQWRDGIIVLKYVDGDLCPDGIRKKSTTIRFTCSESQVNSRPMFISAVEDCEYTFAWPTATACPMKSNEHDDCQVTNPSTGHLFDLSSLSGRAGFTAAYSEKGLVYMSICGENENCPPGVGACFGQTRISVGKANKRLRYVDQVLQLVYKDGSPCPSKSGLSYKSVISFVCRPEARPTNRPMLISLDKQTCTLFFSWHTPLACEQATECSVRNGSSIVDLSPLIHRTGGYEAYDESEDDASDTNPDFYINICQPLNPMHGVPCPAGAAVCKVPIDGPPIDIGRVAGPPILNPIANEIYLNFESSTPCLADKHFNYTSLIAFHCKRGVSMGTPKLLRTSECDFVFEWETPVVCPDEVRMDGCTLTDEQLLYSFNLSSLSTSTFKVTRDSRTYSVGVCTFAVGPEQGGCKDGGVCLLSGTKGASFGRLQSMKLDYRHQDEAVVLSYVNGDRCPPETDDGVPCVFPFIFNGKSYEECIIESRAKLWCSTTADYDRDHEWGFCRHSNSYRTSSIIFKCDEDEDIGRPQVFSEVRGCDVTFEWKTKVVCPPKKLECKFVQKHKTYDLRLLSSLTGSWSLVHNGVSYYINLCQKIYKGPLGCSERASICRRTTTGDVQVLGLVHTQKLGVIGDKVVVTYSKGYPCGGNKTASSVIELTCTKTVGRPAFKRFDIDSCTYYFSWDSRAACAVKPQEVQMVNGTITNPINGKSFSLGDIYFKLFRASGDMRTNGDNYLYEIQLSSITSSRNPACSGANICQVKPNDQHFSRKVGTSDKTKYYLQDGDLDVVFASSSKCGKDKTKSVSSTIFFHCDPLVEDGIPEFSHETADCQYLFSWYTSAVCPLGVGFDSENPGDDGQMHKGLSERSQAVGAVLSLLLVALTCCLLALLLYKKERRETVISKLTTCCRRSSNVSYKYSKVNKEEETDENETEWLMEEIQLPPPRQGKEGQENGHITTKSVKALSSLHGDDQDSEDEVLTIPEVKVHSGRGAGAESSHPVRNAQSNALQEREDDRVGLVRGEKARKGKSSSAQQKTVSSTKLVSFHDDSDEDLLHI

As for `CCCCN1C[C@H](O)[C@@H](O)[C@H](O)[C@H]1CO` [AT2221, (2R,3R,4R,5S)-1-butyl-2-(hydroxymethyl)piperidine-3,4,5-triol, reference compound], the “stabilization of ATB200” value in series [1] (pH 7.4) is “stabilized ATB200 at pH 7.4 in a concentration-dependent manner”.
Turning to “ATB200: rhGAA with a high content of N-glycans bearing mono-M6P and bis-M6P, produced from a GA-ATB200 CHO cell line”, in series [2] (single fibers), the “area with autophagic buildup” value was “reduced to various degrees”. Further, in series [2] (setting [8]), the “Fibers with Autophagy Buildup” value is 40-64%*. Moreover, the Tm in series [1] (pH 5.2) amounted to 67.3 °C. In addition, in series [1] (pH 7.4), the Tm is 56.2 °C and the “increase of melting temperature (Tm) on addition of AT2221” value is approximately 10 °C. The Tm in series [1] (pH 7.4 + 10 μM AT2221) was 61.6 °C. Besides, in series [1] (pH 7.4 + 30 μM AT2221), the Tm came to 62.9 °C. For the same compound, the Tm in series [1] (pH 7.4 + 100 μM AT2221) was 66.0 °C. For the same compound, in series [3] (human), the “increase in distribution half-life (α-phase)” value stood at 40% and the “increase in partial AUC from time to maximum plasma concentration to 24 hours post-dose” value turned out to be 42.2%. Besides, in series [3], the “AUC ratio, signature peptide T50 vs T09” value stood at 1.00; the “dose proportionality of ATB200 levels” value was “slightly greater-than-dose proportional”; the “plasma total GAA protein exposure, ERT-naive (Cohort 3) vs ERT-switch (Cohort 1)” value is recorded as “no statistically significant difference”. In addition, in series [4], the “concentration that saturates cellular receptors” value is listed as “about 20 nM” and the “uptake efficiency constant (Kuptake)” value is 2-3 nm. Also, the “internalization into normal and Pompe fibroblast cells” value in series [4] (compared with Lumizyme) was “internalized to a greater degree than the conventional rhGAA product Lumizyme®”. In series [5] (CIMPR-coated plates, varying rhGAA concentrations), the “binding to CIMPR compared with Lumizyme” value is listed as “bound to CIMPR significantly better than Lumizyme®”. The pKd in series [5] (M6P receptor plate binding assays, read-out: Ku, high-affinity binding to CIMPR) was 8.40 to 8.70.
Take “Lumizyme®: conventional rhGAA product containing alglucosidase alfa, marketed by Genzyme [reference compound]”: in series [6], the “rhGAA that binds to the CIMPR” value is on record as 22% and the “rhGAA that did not bind to the CIMPR” value turned out to be 78%. Also, in series [4], the “concentration that saturates cellular receptors” value was “about 250 nM” and the “uptake efficiency constant (Kuptake)” value is given as 56 nM.
Regarding “Myozyme®: conventional rhGAA product containing alglucosidase alfa, marketed by Genzyme”, in series [6], the “rhGAA that binds to the CIMPR” value amounted to 27% and the “rhGAA that did not bind to the CIMPR” value amounted to 73%. The “lysosome size and autophagic buildup compared to vehicle-treated mice” value in series [2] (single fibers) is reported as “did not show any significant difference”.
Turning to “[199-arginine,223-histidine]prepro-α-glucosidase (human) [alglucosidase alfa, reference compound]”, in series [2] (setting [8]), the “Fibers with Autophagy Buildup” value was more than 90% and the “Fibers with Normal or Near-normal Appearance” value was less than 10%. Moreover, the effect on autophagy entry in series [7] is given as “modest”.
